Reference: US20250352667A1

What was measured:
[1] = target: KEAP1 (wild-type full-length), His-tagged (human) (UniProt Q14145); assay: AlphaScreen; NRF2 wt isoform 1 76.8 nM, KEAP1 150 nM; signal against NRF2-only control; control for Q75R
[2] = target: KEAP1 (wild-type full-length), His-tagged (human) (UniProt Q14145); assay: AlphaScreen; 9.6 nM FLAG-NRF2, 150 nM His-KEAP1; Rep 3; control for I86V
[3] = target: KEAP1 (wild-type full-length), His-tagged (human) (UniProt Q14145); assay: AlphaScreen; 19.2 nM FLAG-NRF2, 150 nM His-KEAP1; signal against NRF2 only; control for I28V
[4] = target: KEAP1 (wild-type full-length), His-tagged (human) (UniProt Q14145); assay: AlphaScreen; FLAG-NRF2 wt isoform 1 9.6 nM, His-KEAP1 150 nM; Repeat 1; positive control for Q75R
[5] = target: KEAP1 (wild-type full-length), His-tagged (human) (UniProt Q14145); assay: AlphaScreen; FLAG-NRF2 wt isoform 1 9.6 nM, His-KEAP1 150 nM; Rep 1; positive control for Q75R
[6] = target: KEAP1 (wild-type full-length), His-tagged (human) (UniProt Q14145); assay: AlphaScreen; 19.2 nM FLAG-NRF2, 150 nM His-KEAP1 (same value as in Table 26)
[7] = target: KEAP1 (wild-type full-length), His-tagged (human) (UniProt Q14145); assay: AlphaScreen; 307.2 nM FLAG-NRF2, 150 nM His-KEAP1; signal against NRF2 only; control for I28V
[8] = target: KEAP1 (wild-type full-length), His-tagged (human) (UniProt Q14145); assay: AlphaScreen; 76.8 nM FLAG-NRF2, 150 nM His-KEAP1; signal against NRF2 only; control for I86V
[9] = target: KEAP1 (wild-type full-length), His-tagged (human) (UniProt Q14145); assay: AlphaScreen; 614.4 nM FLAG-NRF2, 150 nM His-KEAP1; Rep 1; control for I28V
[10] = target: KEAP1 (wild-type full-length), His-tagged (human) (UniProt Q14145); assay: AlphaScreen; 614.4 nM FLAG-NRF2, 150 nM His-KEAP1; Rep 2; control for I28V
[11] = target: KEAP1 (wild-type full-length), His-tagged (human) (UniProt Q14145); assay: AlphaScreen; FLAG-NRF2 wt isoform 1 1228.8 nM, His-KEAP1 150 nM; Rep 1; positive control for Q75R
[12] = target: KEAP1 (wild-type full-length), His-tagged (human) (UniProt Q14145); assay: AlphaScreen; 9.6 nM FLAG-NRF2, 150 nM His-KEAP1 (same value as in Table 26)
[13] = target: KEAP1 (wild-type full-length), His-tagged (human) (UniProt Q14145); assay: AlphaScreen; NRF2 wt isoform 1 9.6 nM, KEAP1 150 nM; signal against NRF2-only control; control for I86V
[14] = target: KEAP1 (wild-type full-length), His-tagged (human) (UniProt Q14145); assay: AlphaScreen; FLAG-NRF2 Q75R 2.4 nM, His-KEAP1 150 nM; Rep 2
[15] = target: KEAP1 (wild-type full-length), His-tagged (human) (UniProt Q14145); assay: AlphaScreen; NRF2 Q75R 4.8 nM, KEAP1 150 nM; signal against NRF2-only control
[16] = target: KEAP1 (wild-type full-length), His-tagged (human) (UniProt Q14145); assay: AlphaScreen; FLAG-NRF2 Q75R 153.6 nM, His-KEAP1 150 nM; Rep 2
[17] = target: KEAP1 (wild-type full-length), His-tagged (human) (UniProt Q14145); assay: AlphaScreen; NRF2 Q75R 19.2 nM, KEAP1 150 nM; signal against NRF2-only control
[18] = target: KEAP1 (wild-type full-length), His-tagged (human) (UniProt Q14145); assay: AlphaScreen; FLAG-NRF2 Q75R 76.8 nM, His-KEAP1 150 nM; Rep 1
[19] = target: KEAP1 (wild-type full-length), His-tagged (human) (UniProt Q14145); assay: AlphaScreen; NRF2 Q75R 9.6 nM, KEAP1 150 nM; relative to wild-type NRF2 isoform 1 (100 %)
[20] = target: KEAP1 (wild-type full-length), His-tagged (human) (UniProt Q14145); assay: AlphaScreen; FLAG-NRF2 I86V 4.8 nM, His-KEAP1 150 nM; Rep 2
[21] = target: KEAP1 (wild-type full-length), His-tagged (human) (UniProt Q14145); assay: AlphaScreen; FLAG-NRF2 I86V 2.4 nM, His-KEAP1 150 nM; Rep 1
[22] = target: KEAP1 (wild-type full-length), His-tagged (human) (UniProt Q14145); assay: AlphaScreen; FLAG-NRF2 I86V 153.6 nM, His-KEAP1 150 nM; Rep 1
[23] = target: KEAP1 (wild-type full-length), His-tagged (human) (UniProt Q14145); assay: AlphaScreen; FLAG-NRF2 I86V 76.8 nM, His-KEAP1 150 nM; Rep 2
[24] = target: KEAP1 (wild-type full-length), His-tagged (human) (UniProt Q14145); assay: AlphaScreen; FLAG-NRF2 I86V 614.4 nM, His-KEAP1 150 nM; Rep 2
[25] = target: KEAP1 (wild-type full-length), His-tagged (human) (UniProt Q14145); assay: AlphaScreen; 9.6 nM FLAG-NRF2, 150 nM His-KEAP1; Repeat 1 (same value as in Table 27)
[26] = target: KEAP1 (wild-type full-length), His-tagged (human) (UniProt Q14145); assay: AlphaScreen; 307.2 nM FLAG-NRF2, 150 nM His-KEAP1; Rep 1
[27] = target: KEAP1 (wild-type full-length), His-tagged (human) (UniProt Q14145); assay: AlphaScreen; 19.2 nM FLAG-NRF2, 150 nM His-KEAP1; Rep 1

Sequence of KEAP1 (wild-type full-length), His-tagged (human) (Q14145 2-624 limits assumed): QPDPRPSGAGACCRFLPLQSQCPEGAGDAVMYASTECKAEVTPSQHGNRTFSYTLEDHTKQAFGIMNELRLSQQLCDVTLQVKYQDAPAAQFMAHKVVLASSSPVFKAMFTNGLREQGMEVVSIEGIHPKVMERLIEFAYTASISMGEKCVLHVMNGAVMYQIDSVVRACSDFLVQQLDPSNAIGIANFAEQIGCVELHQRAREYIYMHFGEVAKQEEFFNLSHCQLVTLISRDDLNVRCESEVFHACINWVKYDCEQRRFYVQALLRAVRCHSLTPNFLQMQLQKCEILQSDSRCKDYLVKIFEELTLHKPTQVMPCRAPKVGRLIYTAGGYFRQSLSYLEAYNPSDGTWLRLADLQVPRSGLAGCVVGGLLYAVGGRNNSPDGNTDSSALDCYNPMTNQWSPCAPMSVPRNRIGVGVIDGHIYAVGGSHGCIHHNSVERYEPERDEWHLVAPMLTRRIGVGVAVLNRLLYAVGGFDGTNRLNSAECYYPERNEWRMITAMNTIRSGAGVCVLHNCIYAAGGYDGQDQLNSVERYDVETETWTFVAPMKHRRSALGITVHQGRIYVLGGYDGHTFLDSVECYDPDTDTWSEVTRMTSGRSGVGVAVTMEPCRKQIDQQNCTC

B1: NRF2 isoform 1 (wild-type full-length), FLAG-tagged (protein)
chain: MMDLELPPPGLPSQQDMDLIDILWRQDIDLGVSREVFDFSQRRKEYELEKQKKLEKERQEQLQKEQEKAFFAQLQLDEETGEFLPIQPAQHIQSETSGSANYSQVAHIPKSDALYFDDCMQLLAQTFPFVDDNEVSSATFQSLVPDIPGHIESPVFIATNQAQSPETSVAQVAPVDLDGMQQDIEQVWEELLSIPELQCLNIENDKLVETTMVPSPEAKLTEVDNYHFYSSIPSMEKEVGNCSPHFLNAFEDSFSSILSTEDPNQLTVNSLNSDATVNTDFGDEFYSAFIAEPSISNSMPSPATLSHSLSELLNGPIDVSDLSLCKAFNQNHPESTAEFNDSDSGISLNTSPSVASPEHSVESSSYGDTLLGLSDSEVEELDSAPGSVKQNGPKTPVHSSGDMVQPLSPSQGQSTHVHDAQCENTPEKELPVSPGHRKTPFTKDKHSSRLEAHLTRDELRAKALHIPFPVEKIINLPVVDFNEMMSKEQFNEAQLALIRDIRRRGKNKVAAQNCRKRKLENIVELEQDLDHLKDEKEKLLKEKGENDKSLHLLKKQLSTLYLEVFSMLRDEDGKPYSPSEYSLQQTRDGNVFLVPKSKKPDVKKN
S/N [1]: 2.5
A-counts [2]: 2410 A-counts
S/N [3]: 4.2
A-counts (NRF2 plus KEAP1) [4]: 1024 A-counts
A-counts (NRF2 plus KEAP1) [5]: 1024 A-counts
S/N [6]: 4.2
S/N [7]: 1.3
S/N [8]: 2.4
A-counts [9]: 1780 A-counts
A-counts [10]: 1810 A-counts
A-counts (NRF2 plus KEAP1) [11]: 1490 A-counts
S/N [12]: 4.1
S/N [13]: 3.6

B2: NRF2 isoform 1 (Q75R full-length), FLAG-tagged (protein)
chain: MMDLELPPPGLPSQQDMDLIDILWRQDIDLGVSREVFDFSQRRKEYELEKQKKLEKERQEQLQKEQEKAFFAQLRLDEETGEFLPIQPAQHIQSETSGSANYSQVAHIPKSDALYFDDCMQLLAQTFPFVDDNEVSSATFQSLVPDIPGHIESPVFIATNQAQSPETSVAQVAPVDLDGMQQDIEQVWEELLSIPELQCLNIENDKLVETTMVPSPEAKLTEVDNYHFYSSIPSMEKEVGNCSPHFLNAFEDSFSSILSTEDPNQLTVNSLNSDATVNTDFGDEFYSAFIAEPSISNSMPSPATLSHSLSELLNGPIDVSDLSLCKAFNQNHPESTAEFNDSDSGISLNTSPSVASPEHSVESSSYGDTLLGLSDSEVEELDSAPGSVKQNGPKTPVHSSGDMVQPLSPSQGQSTHVHDAQCENTPEKELPVSPGHRKTPFTKDKHSSRLEAHLTRDELRAKALHIPFPVEKIINLPVVDFNEMMSKEQFNEAQLALIRDIRRRGKNKVAAQNCRKRKLENIVELEQDLDHLKDEKEKLLKEKGENDKSLHLLKKQLSTLYLEVFSMLRDEDGKPYSPSEYSLQQTRDGNVFLVPKSKKPDVKKN
A-counts (NRF2 plus KEAP1) [14]: 566 A-counts
S/N [15]: 2.3
A-counts (NRF2 plus KEAP1) [16]: 991 A-counts
S/N [17]: 2.5
A-counts (NRF2 plus KEAP1) [18]: 1110 A-counts
Binding Percentage [19]: 72.4%

B3: NRF2 isoform 1 (I86V full-length), FLAG-tagged (protein)
chain: MMDLELPPPGLPSQQDMDLIDILWRQDIDLGVSREVFDFSQRRKEYELEKQKKLEKERQEQLQKEQEKAFFAQLQLDEETGEFLPVQPAQHIQSETSGSANYSQVAHIPKSDALYFDDCMQLLAQTFPFVDDNEVSSATFQSLVPDIPGHIESPVFIATNQAQSPETSVAQVAPVDLDGMQQDIEQVWEELLSIPELQCLNIENDKLVETTMVPSPEAKLTEVDNYHFYSSIPSMEKEVGNCSPHFLNAFEDSFSSILSTEDPNQLTVNSLNSDATVNTDFGDEFYSAFIAEPSISNSMPSPATLSHSLSELLNGPIDVSDLSLCKAFNQNHPESTAEFNDSDSGISLNTSPSVASPEHSVESSSYGDTLLGLSDSEVEELDSAPGSVKQNGPKTPVHSSGDMVQPLSPSQGQSTHVHDAQCENTPEKELPVSPGHRKTPFTKDKHSSRLEAHLTRDELRAKALHIPFPVEKIINLPVVDFNEMMSKEQFNEAQLALIRDIRRRGKNKVAAQNCRKRKLENIVELEQDLDHLKDEKEKLLKEKGENDKSLHLLKKQLSTLYLEVFSMLRDEDGKPYSPSEYSLQQTRDGNVFLVPKSKKPDVKKN
A-counts (NRF2 plus KEAP1) [20]: 2110 A-counts
A-counts (NRF2 plus KEAP1) [21]: 1730 A-counts
A-counts (NRF2 plus KEAP1) [22]: 2380 A-counts
A-counts (NRF2 plus KEAP1) [23]: 2800 A-counts
A-counts (NRF2 plus KEAP1) [24]: 1970 A-counts

B4: NRF2 isoform 1 (I28V full-length), FLAG-tagged (protein)
chain: MMDLELPPPGLPSQQDMDLIDILWRQDVDLGVSREVFDFSQRRKEYELEKQKKLEKERQEQLQKEQEKAFFAQLQLDEETGEFLPIQPAQHIQSETSGSANYSQVAHIPKSDALYFDDCMQLLAQTFPFVDDNEVSSATFQSLVPDIPGHIESPVFIATNQAQSPETSVAQVAPVDLDGMQQDIEQVWEELLSIPELQCLNIENDKLVETTMVPSPEAKLTEVDNYHFYSSIPSMEKEVGNCSPHFLNAFEDSFSSILSTEDPNQLTVNSLNSDATVNTDFGDEFYSAFIAEPSISNSMPSPATLSHSLSELLNGPIDVSDLSLCKAFNQNHPESTAEFNDSDSGISLNTSPSVASPEHSVESSSYGDTLLGLSDSEVEELDSAPGSVKQNGPKTPVHSSGDMVQPLSPSQGQSTHVHDAQCENTPEKELPVSPGHRKTPFTKDKHSSRLEAHLTRDELRAKALHIPFPVEKIINLPVVDFNEMMSKEQFNEAQLALIRDIRRRGKNKVAAQNCRKRKLENIVELEQDLDHLKDEKEKLLKEKGENDKSLHLLKKQLSTLYLEVFSMLRDEDGKPYSPSEYSLQQTRDGNVFLVPKSKKPDVKKN
A-counts [25]: 1570 A-counts
A-counts [26]: 1310 A-counts
A-counts [27]: 1730 A-counts
